Results from US20230203182A1 (NAVROGEN, published 2023).

T1: human CD20 on Ramos cells (human, UniProt P11836 1-297)
T1 construct: whole, on cells; also called MS4A1
T1 sequence (looked up): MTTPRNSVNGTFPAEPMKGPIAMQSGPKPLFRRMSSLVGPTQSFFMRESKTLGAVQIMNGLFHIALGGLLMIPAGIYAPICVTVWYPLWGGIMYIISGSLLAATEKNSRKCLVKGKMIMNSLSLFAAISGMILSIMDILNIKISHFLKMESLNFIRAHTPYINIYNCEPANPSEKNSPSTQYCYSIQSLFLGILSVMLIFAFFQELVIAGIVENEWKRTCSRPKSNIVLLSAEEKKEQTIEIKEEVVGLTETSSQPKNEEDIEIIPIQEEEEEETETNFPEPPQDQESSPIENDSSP


Legend:
[1] = molecular target: T2, human CA125/MUC16 protein (human, UniProt Q8WXI7 1-14451, limits assumed); assay: cell-based or functional assay
[2] = molecular target: T1, human CD20 on Ramos cells; assay: cell-based fluorescent saturation binding on Ramos cells, Jurkat background subtracted, one-site nonlinear regression
[3] = molecular target: T3, human CD16a (Fc-gamma activating receptor FCGR3A), biotinylated (human, UniProt P08637 17-208, limits assumed, biotinylated); assay: CD16a ELISA, percentage of binding with CA125 versus no CA125 (FIG. 7A)
T3 construct: Soluble biotinylated probe in ELISA; construct not described; also called CD16a-biotin; Fc receptor
T3 sequence (P08637 17-208 limits assumed): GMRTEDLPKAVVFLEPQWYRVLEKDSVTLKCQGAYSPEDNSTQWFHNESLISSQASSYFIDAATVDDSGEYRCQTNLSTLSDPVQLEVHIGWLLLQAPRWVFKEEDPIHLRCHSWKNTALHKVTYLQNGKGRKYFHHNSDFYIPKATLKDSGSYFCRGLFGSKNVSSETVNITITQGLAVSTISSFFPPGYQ

[4] = molecular target: T2, human CA125/MUC16 protein; assay: ELISA, CA125-coated (15 KU/mL) and CD20 peptide-coated wells, biotinylated antibody
Description: FIG. 4. […] Each of these antibodies were biotinylated and retested for CD20 and CA125 binding via ELISA. Briefly, antibodies were biotinylated using the EZ-Link™ Sulfo-NHS-Biotin (ThermoScientific) following the manufacturer’s instructions. Biotinylated antibodies where quantified by Nanodrop and validated for signal intensity using an anti-IgG ELISA capture assay to measure the signal intensity for each antibody. […] Wells were washed and then secondarily probed with streptavidin-HRP and quantified using TMB substrate as described above on a Varioskan plate reader at 450 nm. […] Any signal greater than a 20% decrease in CA125 was considered positive.

[5] = molecular target: T2, human CA125/MUC16 protein; assay: direct binding ELISA, CA125-coated wells, biotinylated C4B

suppression of CDC activity by CA125 (Daudi cells) [1] [%]	percent decrease in CA125 binding vs parental (ratio of CD20 to CA125 binding), selection criterion [4] [%]	Binder	other results
32		rituximab (parental antibody) (antibody, human IgG1, kappa, IgG1-type anti-CD20 antibody; Biotinylated when used as probe in the CA125 and CD20-peptide ELISAs; also called RTX; RTX-WT) heavy: not shown light: QIVLSQSPAILSASPGEKVTMTCRASSSVSYIHWFQQKPGSSPKPWIYATSNLASGVPVRFSGSGSGTSYSLTISRVEAEDAATYYCQQWTSNPPTFGGGTKLEIKRTVAAPSVFIFPPSDEQLKSGTASVVCLLNNFYPREAKVQWKVDNALQSGNSQESVTEQDSKDSTYSLSSTLTLSKADYEKHKVYACEVTHQGLSSPVTKSFNRGEC	Kd [2]: 0.0206 µM
		RTX N109D (antibody, human IgG1, kappa, also called RTX-MT N109D; RTX MT N109D) heavy: not shown light: QIVLSQSPAILSASPGEKVTMTCRASSSVSYIHWFQQKPGSSPKPWIYATSNLASGVPVRFSGSGSGTSYSLTISRVEAEDAATYYCQQWTSNPPTFGGGTKLEIKRTVAAPSVFIFPPSDEQLKSGTASVVCLLNNFYPREAKVQWKVDNALQSGNSQESVTEQDSKDSTYSLSSTLTLSKADYEKHKVYACEVTHQGLSSPVTKSFNRGEC	Kd [2]: 0.0305 µM
≤ 15		RTX-MT clone 166 (antibody, human IgG1, kappa, Biotinylated in the ELISAs; also called N109D+P131S+S136Y; triple mutant RTX-MT clone 166) heavy: not shown light: QIVLSQSPAILSASPGEKVTMTCRASSSVSYIHWFQQKPGSSPKPWIYATSNLASGVPVRFSGSGSGTSYSLTISRVEAEDAATYYCQQWTSNPPTFGGGTKLEIKRTVAAPSVFIFPPSDEQLKSGTASVVCLLNNFYPREAKVQWKVDNALQSGNSQESVTEQDSKDSTYSLSSTLTLSKADYEKHKVYACEVTHQGLSSPVTKSFNRGEC	binding result [3]: binds
≤ 15	> 20	RTX-MT clone 148 (antibody, human IgG1, kappa, V domains shown, Biotinylated in the ELISAs) VH: QVQLQQPGAELVKPGASVKMSCKASGYTFTSYNMHWVKQTPGRGLEWIGAIYPGNGDTSYNQKFKGKATLTADKSSSTAYMQLSSLTSEDSAVYYCARSTYFGGDWYFNVWGAGTTVTVSA VL: QIVLSQSPAILSASPGEKVTMTCRASSSVSYIHWFQQKPGSSPKPWIYATSNLASGVPVRFSGSGSGTSYSLTISRVEAEDAATYYCQQWTSNPPTFGGGTKLEIKR	
		RTX-MT N109D+S136Y (antibody, human IgG1, kappa) heavy: not shown light: QIVLSQSPAILSASPGEKVTMTCRASSSVSYIHWFQQKPGSSPKPWIYATSNLASGVPVRFSGSGSGTSYSLTISRVEAEDAATYYCQQWTSNPPTFGGGTKLEIKRTVAAPSVFIFPPSDEQLKSGTASVVCLLNNFYPREAKVQWKVDNALQSGNSQESVTEQDSKDSTYSLSSTLTLSKADYEKHKVYACEVTHQGLSSPVTKSFNRGEC	binding result [3]: binds
≤ 15	> 20	RTX-MT clone 199 (antibody, human IgG1, kappa, V domains shown, Biotinylated in the ELISAs) VH: QVQLQQPGAELVKPGASVKMSCKASGYTFTSYNMHWVKQTPGRGLEWIGAIYPGNGDTSYNQKFKGKATLTADKSSSTAYMQLSSLTSEDSAVYYCARSTYYGGDWYLNVWGAGTTVTVSA VL: QIVLSQSPAILSASPGEKVTMTCRASSSVSYIHWFQQKPGSSPKPWIYATSNLASGVPVRFSGSGSGTSYSLTISRVEAEDAATYYCQQWTSNPPTFGGGTKLEIKR	
≤ 15	> 20	RTX-MT clone 198 (antibody, human IgG1, kappa, V domains shown, Biotinylated in the ELISAs) VH: QVQLQQPGAELVKPGASVKMSCKASGYTFTSYNMHWVKQTPGRGLEWIGAIYPGNGDTSYNQKFKGKATLTADKSSSTAYMQLSSLTSEDSAVYYCARSTYYGGDWCFNVWGAGTTVTVSA VL: QIVLSQSPAILSASPGEKVTMTCRASSSVSYIHWFQQKPGSSPKPWIYATSNLASGVPVRFSGSGSGTSYSLTISRVEAEDAATYYCQQWTSNPPTFGGGTKLEIKR	
≤ 15	> 20	RTX-MT clone 164 (antibody, human IgG1, kappa, V domains shown, Biotinylated in the ELISAs) VH: QVQLQQPGAELVKPGASVKMSCKASGYTFTSYNMHWVKQTPGRGLEWIGAIYPGNGDTSYNQKFKGKATLTADKSSSTAYMQLSSLTSEDSAVYYCARSTYYCGDWYFNVWGAGTTVTVSA VL: QIVLSQSPAILSASPGEKVTMTCRASSSVSYIHWFQQKPGSSPKPWIYATSNLASGVPVRFSGSGSGTSYSLTISRVEAEDAATYYCQQWTSNPPTFGGGTKLEIKR	
		human complement protein C4B (other, also called enhancer protein) KPRLLLFSPSVVHLGVPLSVGVQLQDVPRGQVVKGSVFLRNPSRNNVPCSPKVDFTLSSERDFALLSLQVPLKDAKSCGLHQLLRGPEVQLVAHSPWLKDSLSRTTNIQGINLLFSSRRGHLFLQTDQPIYNPGQRVRYRVFALDQKMRPSTDTITVMVENSHGLRVRKKEVYMPSSIFQDDFVIPDISEPGTWKISARFSDGLESNSSTQFEVKKYVLPNFEVKITPGKPYILTVPGHLDEMQLDIQARYIYGKPVQGVAYVRFGLLDEDGKKTFFRGLESQTKLVNGQSHISLSKAEFQDALEKLNMGITDLQGLRLYVAAAIIESPGGEMEEAELTSWYFVSSPFSLDLSKTKRHLVPGAPFLLQALVREMSGSPASGIPVKVSATVSSPGSVPEVQDIQQNTDGSGQVSIPIIIPQTISELQLSVSAGSPHPAIARLTVAAPPSGGPGFLSIERPDSRPPRVGDTLNLNLRAVGSGATFSHYYYMILSRGQIVFMNREPKRTLTSVSVFVDHHLAPSFYFVAFYYHGDHPVANSLRVDVQAGACEGKLELSVDGAKQYRNGESVKLHLETDSLALVALGALDTALYAAGSKSHKPLNMGKVFEAMNSYDLGCGPGGGDSALQVFQAAGLAFSDGDQWTLSRKRLSCPKEKTTRKKRNVNFQKAINEKLGQYASPTAKRCCQDGVTRLPMMRSCEQRAARVQQPDCREPFLSCCQFAESLRKKSRDKGQAGLQRALEILQEEDLIDEDDIPVRSFFPENWLWRVETVDRFQILTLWLPDSLTTWEIHGLSLSKTKGLCVATPVQLRVFREFHLHLRLPMSVRRFEQLELRPVLYNYLDKNLTVSVHVSPVEGLCLAGGGGLAQQVLVPAGSARPVAFSVVPTAATAVSLKVVARGSFEFPVGDAVSKVLQIEKEGAIHREELVYELNPLDHRGRTLEIPGNSDPNMIPDGDFNSYVRVTASDPLDTLGSEGALSPGGVASLLRLPRGCGEQTMIYLAPTLAASRYLDKTEQWSTLPPETKDHAVDLIQKGYMRIQQFRKADGSYAAWLSRGSSTWLTAFVLKVLSLAQEQVGGSPEKLQETSNWLLSQQQADGSFQDLSPVIHRSMQGGLVGNDETVALTAFVTIALHHGLAVFQDEGAEPLKQRVEASISKASSFLGEKASAGLLGAHAAAITAYALTLTKAPADLRGVAHNNLMAMAQETGDNLYWGSVTGSQSNAVSPTPAPRNPSDPMPQAPALWIETTAYALLHLLLHEGKAEMADQAAAWLTRQGSFQGGFRSTQDTVIALDALSAYWIASHTTEERGLNVTLSSTGRNGFKSHALQLNNRQIRGLEEELQFSLGSKINVKVGGNSKGTLKVLRTYNVLDMKNTTCQDLQIEVTVKGHVEYTMEANEDYEDYEYDELPAKDDPDAPLQPVTPLQLFEGRRNRRRREAPKVVEEQESRVHYTVCIWRNGKVGLSGMAIADVTLLSGFHALRADLEKLTSLSDRYVSHFETEGPHVLLYFDSVPTSRECVGFEAVQEVPVGLVQPASATLYDYYNPERRCSVFYGAPSKSRLLATLCSAEVCQCAEGKCPRQRRALERGLQDEDGYRMKFACYYPRVEYGFQVKVLREDSRAAFRLFETKITQVLHFTKDVKAAANQMRNFLVRASCRLRLEPGKEYLIMGLDGATYDLEGHPQYLLDSNSWIEEMPSERLCRSTRQRAACAQLNDFLQEYGTQGCQV	binding result [5]: no binding
